# Assay results published in patent publication US20180015177A1 (Genentech, published 2018).
# Numbering of substitutions follows the chain as printed. Values joined by “and” are separate entries in the source; they are usually repeats but may differ in a detail not shown here. Equal entries are not always repeated.
# T1: human Ly6E, N-terminal gD-tagged, stably expressed on PC3 cells (human, UniProt Q16553 21-101)
# T1 construct: GPI-linked protein on cells; also called hu Ly6E; human Ly6E transfected PC3 cells; not shown: N-terminal gD tag of the retroviral vector
# T1 sequence: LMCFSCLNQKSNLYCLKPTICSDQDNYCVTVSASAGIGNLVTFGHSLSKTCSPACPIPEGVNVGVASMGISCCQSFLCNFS
# T2: Cynomolgus monkey Ly6E, N-terminal gD-tagged, stably expressed on PC3 cells (cynomolgus monkey, UniProt Q16553 21-101 (human entry))
# T2 construct: also called cyno Ly6E; not shown: N-terminal gD tag of the retroviral vector
# T2 chain: T1 sequence with A33T, I57L, V61I
# T3: Hu Ly6E (immobilized on CM5 chip for SPR) (human, UniProt Q16553 21-101)
# T3 construct: also called human Ly6E
# T3 sequence: T1 sequence
# B1: hu9B12.v12 (antibody, V domains shown)
# VH: EVQLVESGPALVKPTQTLTLTCTVSGFSLTGYSVNWIRQPPGKALEWLGMIWGDGSTDYNSALKSRLTISKDTSKNQVVLTMTNMDPVDTATYYCARDYYFNYASWFAYWGQGTLVTVSS
# VL: DIQMTQSPSSLSASVGDRVTITCSASQGISNYLNWYQQKPGKTVKLLIYYTSNLHSGVPSRFSGSGSGTDYTLTISSLQPEDFATYYCQQYSELPWTFGQGTKVEIK
# notes: Expressed and tested as IgG; Iodinated (125I) tracer plus unlabeled antibody in the Scatchard analysis; also called humanized anti-Ly6E antibody
# B2: humanized 9B12 variant v8 (antibody, V domains shown)
# VH: EVQLVESGGGLVQPGGSLRLSCAASGFSLTGYSVNWVRQAPGKGLEWVGMIWGDGSTDYNSALKSRFTISRDNSKNTLYLQMNSLRAEDTAVYYCARDYYFNYASWFAYWGQGTLVTVSS
# VL: B1 VL with Y71F
# notes: IgG. k1 graft 43+44 / VH3 graft; Residue change derived
# B3: humanized 9B12 variant v13 (antibody, V domains shown)
# VH: B2 VH
# VL: B1 VL
# notes: IgG. k1 graft 43+44+71 / VH3 graft
# B4: humanized 9B12 variant v6 (antibody, V domains shown)
# VH: B1 VH with V24F
# VL: B1 VL with Y71F
# notes: IgG. k1 graft 43+44 / VH2 graft + 49; Residue changes derived
# B5: humanized 9B12 variant v25 (antibody, V domains shown)
# VH: B2 VH with A24V, V48L, F67L, R71K, N76S, L78V
# VL: B1 VL with T43A, V44P
# notes: IgG. k1 graft + 71 / VH3 graft + 24 + 48 + 67 + 71 + 76 + 78; Residue changes derived
# B6: humanized 9B12 variant v3 (antibody, V domains shown)
# VH: B2 VH
# VL: B1 VL with T43A, V44P, Y71F
# notes: Light chain changes derived
# B7: humanized 9B12 variant v1 (antibody, V domains shown)
# VH: B1 VH with V24F
# VL: B1 VL with T43A, V44P, Y71F
# notes: IgG. k1 graft / VH2 graft + 49
# B8: humanized 9B12 variant v20 (antibody, V domains shown)
# VH: B2 VH with A24V, V48L, F67L, R71K, N76S, L78V
# VL: B1 VL
# notes: IgG. k1 graft 43+44+71 / VH3 graft + 24 + 48 + 67 + 71 + 76 + 78; Residue changes derived
# B9: humanized 9B12 variant v11 (antibody, V domains shown)
# VH: B1 VH with V24F
# VL: B1 VL
# notes: IgG. k1 graft 43+44+71 / VH2 graft + 49; Residue change derived
# B10: chimeric 9B12 (antibody, V domains shown)
# VH: QVQLKESGPGLVAPSQSLSLTCTVSGFSLTGYSVNWVRQPPGKGLEWLGMIWGDGSTDYNSALKSRLTISKDNSKSQVFLKMNSLQTDDTARYYCARDYYFNYASWFAYWGPGTLVTVSA
# VL: DIQMTQTTSSLSASLGDRVTISCSASQGISNYLNWYQQKPDGTVKLLIYYTSNLHSGVPSRFSGSGSGTDYSLTISNLEPEDIATYYCQQYSELPWTFGGGTKVEIK
# notes: Chimeric IgG with the mouse 9B12 variable domains; also called ch9B12; Ch 9B12
# Legend:
# [1] = target: human Ly6E, N-terminal gD-tagged, stably expressed on PC3 cells (human) (UniProt Q16553); assay: Scatchard analysis on PC3 cells expressing gD-tagged human Ly6E (binding to the gD tag)
# [2] = target: Cynomolgus monkey Ly6E, N-terminal gD-tagged, stably expressed on PC3 cells (cynomolgus monkey); assay: Scatchard analysis on PC3 cells expressing gD-tagged cyno Ly6E (binding to the gD tag)
# [3] = target: T1, human Ly6E, N-terminal gD-tagged, …; assay: cell-based competitive binding on human Ly6E PC3 cells; competitor mouse 9B12
# Method: (§1) Cell-based Ly6E competitive binding assay—Cultured human Ly6E transfected PC3 cells were harvested with 5 mM EDTA containing PBS. Cells were washed with PBS and added onto a 384-well high binding plate (Meso Scale Discovery Technology (MSD); Gaithersburg, Md.). The plate was kept at room temperature for 1 hr to allow cells to adhere to the plate as described (See Lu, Y., Wong, W. L. & Meng, Y. G. A high throughput electrochemiluminescent cell-binding assay for therapeutic anti-CD20 antibody selection. Journal of Immunological Methods 314, 74-79 (2006)). The plate with cells was blocked with fetal bovine serum containing PBS for 1 hr and then cooled on ice. Serially diluted antibody variant samples were mixed with equal volume of fixed concentration of mouse 9B12 Ab. The mixtures were added onto the plates and incubated at 4° C. with gentle shaking for 1 hr.
# (§2) The plate was then washed with cold PBS and an anti-mouse IgG Fc specific Ab (Jackson ImmunoReserach; West Grove, Pa.) labeled with sulfo-ruthenium tag was added to the plate as the detection reagent. The plate was incubated at 4° C. with gentle shaking for 1 hr. After incubation the plate was washed again, and MSD read buffer (MSD; Gaithersburg, Md.) was added onto the wells. The plate was read with a MSD SectorÒ imager 6000. The data was graphed and analyzed using KaleidaGraph software (Synergy Software; Reading, Pa.) to determine IC₅₀ values.
# [4] = target: T2, Cynomolgus monkey Ly6E, N-terminal …; assay: cell-based Ly6E competitive binding assay, cyno Ly6E; competitor mouse 9B12
# [5] = target: T2, Cynomolgus monkey Ly6E, N-terminal …; assay: Scatchard analysis on PC3 cells expressing cyno Ly6E
# Method: (§3) A scatchard analysis was performed to determine affinity and binding sites per cell for the antibodies. Hu.9B12v12 antibody was iodinated several times using the Iodogen method. […] Competition reaction mixtures of 50 μL containing a fixed concentration of iodinated antibody and decreasing concentrations of unlabeled antibody were placed into 96-well plates. The PC3 cells stably transduced with retrovirus to express either recombinant human or Cynomolgus monkey gD tagged Ly6E were detached from flasks using Sigma Cell Dissociation Solution and were washed with binding buffer (DMEM with 2% FBS, 50 mM HEPES, pH 7.2, and 0.1% sodium azide). The washed cells were added at an approximate density of 200,000 cells in 0.2 mL of binding buffer to the 96-well plates containing the 50-μL competition reaction mixtures. […] The filters were counted on a Wallac Wizard 1470 gamma counter (PerkinElmer Life and Analytical Sciences; Wellesley, Mass.). The binding data were evaluated using New Ligand software (Genentech), which uses the fitting algorithm of Munson and Rodbard (1980) to determine the binding affinity of the antibody.
# [6] = target: T1, human Ly6E, N-terminal gD-tagged, …; assay: cell-based Ly6E competitive binding assay, human Ly6E; competitor mouse 9B12
# Method: as §1
# as §2, with “The plate was incubated at 4° C. with gentle shaking for 1 hr.” left out
# [7] = target: T1, human Ly6E, N-terminal gD-tagged, …; assay: Scatchard analysis (125I antibody) on PC3 cells expressing gD-tagged human Ly6E
# Method: as §3
# [8] = target: T2, Cynomolgus monkey Ly6E, N-terminal …; assay: Scatchard analysis (125I antibody) on PC3 cells expressing gD-tagged cyno Ly6E
# Method: as §3
# [9] = target: T3, Hu Ly6E (immobilized on CM5 chip for …); assay: SPR (Biacore T100), Hu Ly6E immobilized, IgG injected, single cycle kinetics, apparent KD
# Method: SPR Affinity Determination—Affinity determinations were performed by surface plasmon resonance using single cycle kinetics on a BIAcore™-T100. Hu Ly6E was immobilized via EDC/NHS chemistry according to supplier's instructions (˜20 response units (RU)) on a CM5 chip. For kinetic measurement, three-fold serial dilution of anti-Ly6E IgG (5 to 405 nM) in PBST were injected with 200 s for association & 300 s for dissociation at a flow rate of 30 ul/min at 25° C. Binding response was corrected by subtracting both the RU from a blank flow cell and from buffer run on the same flow cell. A 1:1 Languir model of simultaneous fitting of kₒₙ and koff was used to measure the apparent KD.
# [10] = target: T1, human Ly6E, N-terminal gD-tagged, …; assay: Scatchard analysis on PC3 cells expressing human Ly6E
# Method: as §3
# [11] = target: T1, human Ly6E, N-terminal gD-tagged, …; assay: cell-based Ly6E competitive binding assay on human Ly6E PC3 cells; competitor mouse 9B12
# Method: as §1, §2
molecule,measurement,setting,value
anti-gD mAb (antibody),Kd,[1],1.1 nM
same,Sites/Cell,[1],13000 sites/cell
same,Kd,[2],2 nM
same,Sites/Cell,[2],53000 sites/cell
B1,IC50,[3],15 nM and 16 nM
same,Kd,[4],16 to 40 nM
same,Kd,[5],14 nM
same,Kd,[6],15 to 19 nM
same,Kd,[7],4 nM
same,Kd,[8],7.9 nM
same,Kd,[9],7 nM
same,Kd,[10],4 nM
B2,binding result,[11],no binding
B3,binding result,[11],no binding
B4,binding result,[11],no binding
B5,IC50,[3],56 nM
B6,binding result,[11],no binding
B7,binding result,[11],no binding
B8,IC50,[3],26 nM
B9,binding result,[11],no binding
B10,IC50,[3],3 nM and 6 nM and 5 nM
same,Kd,[4],5 to 7 nM
same,Kd,[5],4 nM
same,Kd,[6],3 to 6 nM
same,Kd,[7],2 nM
same,Kd,[8],2.9 nM
same,Kd,[9],6 nM
same,Kd,[10],4 nM
